Data reported in patent US20230220589A1.

Columns and labels:
[1] = target: M44-modified E NTAA target peptides; experiment: encoding assay; P2 G
[2] = target: M44-modified F NTAA target peptides (M44-F-P2-peptide); experiment: encoding assay; P2 G
[3] = target: M44-modified I NTAA target peptides (M44-I-P2-peptide); experiment: encoding assay; P2 G
[4] = target: M44-modified L NTAA target peptides (M44-L-P2-peptide); experiment: encoding assay; P2 G
[5] = target: M44-modified M NTAA target peptides; experiment: encoding assay; P2 G
[6] = target: M44-modified Q NTAA target peptides; experiment: encoding assay; P2 G
[7] = target: M44-modified T NTAA target peptides; experiment: encoding assay; P2 G
[8] = target: M44-modified V NTAA target peptides; experiment: encoding assay; P2 G
[9] = target: M44-modified W NTAA target peptides; experiment: encoding assay; P2 G
[10] = target: M44-modified Y NTAA target peptides (M44-Y-P2-peptide); experiment: encoding assay; P2 G
[11] = target: M44-modified A NTAA target peptides (M44-A-P2-peptide); experiment: encoding assay; P2 P
[12] = target: M44-modified D NTAA target peptides; experiment: encoding assay; P2 P
[13] = target: M44-modified E NTAA target peptides; experiment: encoding assay; P2 P
[14] = target: M44-modified F NTAA target peptides (M44-F-P2-peptide); experiment: encoding assay; P2 P
[15] = target: M44-modified H NTAA target peptides; experiment: encoding assay; P2 P
[16] = target: M44-modified I NTAA target peptides (M44-I-P2-peptide); experiment: encoding assay; P2 P
[17] = target: M44-modified L NTAA target peptides (M44-L-P2-peptide); experiment: encoding assay; P2 P
[18] = target: M44-modified M NTAA target peptides; experiment: encoding assay; P2 P
[19] = target: M44-modified N NTAA target peptides; experiment: encoding assay; P2 P
[20] = target: M44-modified Q NTAA target peptides; experiment: encoding assay; P2 P
[21] = target: M44-modified S NTAA target peptides; experiment: encoding assay; P2 P
[22] = target: M44-modified Y NTAA target peptides (M44-Y-P2-peptide); experiment: encoding assay; P2 P
[23] = target: M44-modified A NTAA target peptides (M44-A-P2-peptide); experiment: encoding assay; P2 V
[24] = target: M44-modified D NTAA target peptides; experiment: encoding assay; P2 V
[25] = target: M44-modified F NTAA target peptides (M44-F-P2-peptide); experiment: encoding assay; P2 V
[26] = target: M44-modified H NTAA target peptides; experiment: encoding assay; P2 V
[27] = target: M44-modified I NTAA target peptides (M44-I-P2-peptide); experiment: encoding assay; P2 V
[28] = target: M44-modified L NTAA target peptides (M44-L-P2-peptide); experiment: encoding assay; P2 V
[29] = target: M44-modified M NTAA target peptides; experiment: encoding assay; P2 V
[30] = target: M44-modified N NTAA target peptides; experiment: encoding assay; P2 V
[31] = target: M44-modified P NTAA target peptides; experiment: encoding assay; P2 V
[32] = target: M44-modified Q NTAA target peptides; experiment: encoding assay; P2 V
[33] = target: M44-modified S NTAA target peptides; experiment: encoding assay; P2 V
[34] = target: M44-modified T NTAA target peptides; experiment: encoding assay; P2 V
[35] = target: M44-modified Y NTAA target peptides (M44-Y-P2-peptide); experiment: encoding assay; P2 V
[36] = target: M44-modified A NTAA target peptides (M44-A-P2-peptide); experiment: encoding assay; P2 W
[37] = target: M44-modified D NTAA target peptides; experiment: encoding assay; P2 W
[38] = target: M44-modified F NTAA target peptides (M44-F-P2-peptide); experiment: encoding assay; P2 W
[39] = target: M44-modified G NTAA target peptides (M44-G-P2-peptide); experiment: encoding assay; P2 W
[40] = target: M44-modified H NTAA target peptides; experiment: encoding assay; P2 W
[41] = target: M44-modified I NTAA target peptides (M44-I-P2-peptide); experiment: encoding assay; P2 W
[42] = target: M44-modified L NTAA target peptides (M44-L-P2-peptide); experiment: encoding assay; P2 W
[43] = target: M44-modified M NTAA target peptides; experiment: encoding assay; P2 W
[44] = target: M44-modified N NTAA target peptides; experiment: encoding assay; P2 W
[45] = target: M44-modified P NTAA target peptides; experiment: encoding assay; P2 W
[46] = target: M44-modified Q NTAA target peptides; experiment: encoding assay; P2 W
[47] = target: M44-modified S NTAA target peptides; experiment: encoding assay; P2 W
[48] = target: M44-modified T NTAA target peptides; experiment: encoding assay; P2 W
[49] = target: M44-modified V NTAA target peptides; experiment: encoding assay; P2 W
[50] = target: M44-modified W NTAA target peptides; experiment: encoding assay; P2 W
[51] = target: M44-modified Y NTAA target peptides (M44-Y-P2-peptide); experiment: encoding assay; P2 W

Measured: encoding yield
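Note: fraction of recording tags encoded.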

B1: engineered M44-A binder (SEQ ID NO: 42) (designed binder, not shown: small tags and cut ends; large carriers)
chain: QVSVQPNFQQDKFLGRWFVAGLASNSSWDREKVAALSGAKMVVAPATDGGLNVTRTMLRKNQCETYTGLLQPAGSLGSYSWRSPHPGSTGSESVVETDYDQYALVYGQGSKGPGEDLRAAALWSRTQTPRAELKEKFTAFSKAQGFTEDTIVFLPQTDKCMTEQ
0.12: [34]
0.09: [25]
0.03: [1] | [4] | [11] | [13] | [16] | [20] | [24] | [43] | [46]
0.11: [7]
0.13: [47] | [48]
0.22: [49]
0.18: [38]
0.02: [6] | [10] | [18] | [19] | [22] | [37] | [39]
0.21: [41]
0.17: [23]
0.08: [3]
0.06: [35] | [51]
0.01: [5] | [9]
0.07: [42]
0.28: [36]
0.05: [8] | [21] | [26] | [27] | [33] | [44] | [50]
0.04: all other assays above
